According to PMC5854732:

Experiments:
[1] = target: toposome (major yolk protein) purified from gonads of Paracentrotus lividus collected at the bloom phase (T0) (Paracentrotus lividus (endogenous in gonads)); experiment: SEC; gel filtration on Sephacryl S-400 HR (1.8 x 42 cm), Tris-HCl buffer pH 8.0 with 150 mM NaCl, 0.5 ml/min; size by comparison with standards (blue dextran 2,000 kDa, thyroglobulin 669 kDa, apoferritin 443 kDa); apparent molecular weight
[2] = target: toposome (major yolk protein) purified from gonads of Paracentrotus lividus collected prior to the bloom (C) (Paracentrotus lividus (endogenous in gonads)); experiment: as above

stoichiometry N [1] | stoichiometry N [2] | Substance
3 |  | toposome (major yolk protein) purified from gonads of Paracentrotus lividus collected at the bloom phase (T0) (natural protein)
 | 3 | toposome (major yolk protein) purified from gonads of Paracentrotus lividus collected prior to the bloom (C) (natural protein)
